Measurements as given in patent US20160289298A1.

Key:
[1] = target: TGFβ1 (UniProt P01137); assay: SPR (Biacore), receptor-Fc captured by anti-Fc antibody, ligand injected
[2] = target: TGFβ2 (UniProt P61812); assay: as above
Sequence of TGFβ2 (P61812 303-414 limits assumed): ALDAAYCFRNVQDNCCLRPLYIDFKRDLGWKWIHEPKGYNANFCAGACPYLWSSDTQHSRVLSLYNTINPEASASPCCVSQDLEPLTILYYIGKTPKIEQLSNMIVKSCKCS

Sequence of TGFβ1 (P01137 279-390 limits assumed): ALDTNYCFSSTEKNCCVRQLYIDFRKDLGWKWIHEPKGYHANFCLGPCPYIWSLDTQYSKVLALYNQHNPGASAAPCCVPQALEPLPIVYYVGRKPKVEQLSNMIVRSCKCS

With “TGFβRII-Fc homodimeric complex (from UniProt P37173 23-159) (Fc fusion)” the Kd [1] was 0.025 nM and the Kd [2] was > 44 nM.
